Values quoted from earlier work as cited in PMC4934914.
pKd: −log10 of the molar value. Values belong to the substance of their own block, whether it stands above or below them.

Legend:
IscS (Escherichia coli) = IscS (Escherichia coli) (UniProt P0A6B7)
[1] = molecular target: BsHemH (Bacillus subtilis) (UniProt P32396)
[2] = molecular target: BsSufU (Bacillus subtilis) (UniProt O32163)
Sequence of BsSufU (Bacillus subtilis) (O32163 whole entry): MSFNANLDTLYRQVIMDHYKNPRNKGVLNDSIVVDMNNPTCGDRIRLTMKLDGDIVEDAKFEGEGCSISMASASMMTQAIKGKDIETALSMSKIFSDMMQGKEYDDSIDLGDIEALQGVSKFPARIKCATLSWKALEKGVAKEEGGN

Sequence of BsHemH (Bacillus subtilis) (P32396 whole entry): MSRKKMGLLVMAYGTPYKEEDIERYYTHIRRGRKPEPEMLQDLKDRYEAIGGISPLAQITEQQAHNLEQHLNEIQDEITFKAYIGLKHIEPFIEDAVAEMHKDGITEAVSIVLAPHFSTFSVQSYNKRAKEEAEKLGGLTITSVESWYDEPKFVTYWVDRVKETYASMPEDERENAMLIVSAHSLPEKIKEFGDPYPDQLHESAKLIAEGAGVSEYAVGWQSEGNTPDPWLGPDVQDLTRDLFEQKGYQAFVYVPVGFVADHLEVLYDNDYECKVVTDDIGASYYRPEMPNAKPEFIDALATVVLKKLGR
Sequence of IscS (Escherichia coli) (P0A6B7 whole entry): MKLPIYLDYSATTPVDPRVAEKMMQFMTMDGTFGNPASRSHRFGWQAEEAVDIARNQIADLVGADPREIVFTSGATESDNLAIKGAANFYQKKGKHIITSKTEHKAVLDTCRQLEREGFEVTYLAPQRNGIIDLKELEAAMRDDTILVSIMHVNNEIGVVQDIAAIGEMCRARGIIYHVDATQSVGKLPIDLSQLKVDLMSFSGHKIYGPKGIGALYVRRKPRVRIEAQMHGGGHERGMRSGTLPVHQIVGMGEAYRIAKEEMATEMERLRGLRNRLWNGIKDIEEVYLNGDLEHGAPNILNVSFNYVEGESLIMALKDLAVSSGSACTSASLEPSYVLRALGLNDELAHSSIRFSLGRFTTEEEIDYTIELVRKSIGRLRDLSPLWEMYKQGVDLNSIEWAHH
Sequence of BsSufS (O32164 whole entry): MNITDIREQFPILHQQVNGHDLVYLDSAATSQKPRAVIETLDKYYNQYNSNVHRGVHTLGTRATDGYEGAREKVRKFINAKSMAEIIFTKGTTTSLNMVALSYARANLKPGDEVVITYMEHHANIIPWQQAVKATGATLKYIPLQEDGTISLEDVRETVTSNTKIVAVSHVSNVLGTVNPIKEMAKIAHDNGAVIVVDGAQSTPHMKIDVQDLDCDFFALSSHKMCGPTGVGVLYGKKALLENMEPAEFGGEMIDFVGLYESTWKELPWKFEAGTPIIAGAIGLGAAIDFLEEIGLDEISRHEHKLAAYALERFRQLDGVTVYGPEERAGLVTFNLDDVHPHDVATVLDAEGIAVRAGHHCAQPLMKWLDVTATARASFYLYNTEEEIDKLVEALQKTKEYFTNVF
Sequence of BsFra (frataxin) (Q797E6 whole entry): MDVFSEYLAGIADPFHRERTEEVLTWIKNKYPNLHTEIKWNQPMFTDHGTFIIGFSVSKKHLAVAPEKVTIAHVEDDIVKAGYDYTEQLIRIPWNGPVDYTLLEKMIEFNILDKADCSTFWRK
Sequence of CyaY (P27838 whole entry): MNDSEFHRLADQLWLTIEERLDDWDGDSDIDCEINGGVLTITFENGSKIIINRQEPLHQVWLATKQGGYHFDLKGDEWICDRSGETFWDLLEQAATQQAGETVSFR

Substance: CyaY (from UniProt P27838)
pKd (IscS (Escherichia coli)): 4.73

Substance: BsFra (frataxin) (from UniProt Q797E6)
pKd [1]: 5.79

pKd [2]: 5.58
Substance: BsSufS (from UniProt O32164)
